Results: article PMC11077084, “Biochemical characterization of the meiosis-essential yet evolutionarily divergent topoisomerase VIB-like protein MTOPVIB from Arabidopsis thaliana” (Nucleic Acids Research, 2024)

Legend:
[1] = biological target: T1, N. equitans Topo VI complex (Topo VIA•Topo VIB) (Nanoarchaeum equitans, UniProt Q74N98); assay: radioisotope-based ATPase assay; also ATP-agarose pulldown; format: biochemical; conditions: labelled compound (gamma-32P) in the ATPase assay
T1 construct: gene top6B; codon-optimized Topo VIA and VIB co-expressed from pETDuet in E. coli Rosetta (DE3) pLysS; heat step, Ni-NTA; A2B2 heterotetramer; with Type 2 DNA topoisomerase 6 subunit A
T1 sequence (Q74N98 1-567): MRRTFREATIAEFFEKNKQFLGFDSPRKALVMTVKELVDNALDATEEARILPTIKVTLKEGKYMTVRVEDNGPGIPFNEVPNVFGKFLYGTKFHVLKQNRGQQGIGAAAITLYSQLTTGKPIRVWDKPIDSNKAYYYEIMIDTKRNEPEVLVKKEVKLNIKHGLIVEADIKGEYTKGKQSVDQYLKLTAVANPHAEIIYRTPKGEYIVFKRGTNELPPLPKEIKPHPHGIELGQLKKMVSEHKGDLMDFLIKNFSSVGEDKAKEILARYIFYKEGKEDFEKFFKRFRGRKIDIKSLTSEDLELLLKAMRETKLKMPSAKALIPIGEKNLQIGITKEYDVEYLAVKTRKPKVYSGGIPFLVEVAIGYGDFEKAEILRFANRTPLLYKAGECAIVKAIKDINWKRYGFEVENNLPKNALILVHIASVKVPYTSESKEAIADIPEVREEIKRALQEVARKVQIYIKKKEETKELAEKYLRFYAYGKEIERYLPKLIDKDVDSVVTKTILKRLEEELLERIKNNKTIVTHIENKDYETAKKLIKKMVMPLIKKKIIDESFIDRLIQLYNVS
T1 sequence (Q74M54 1-359 partner): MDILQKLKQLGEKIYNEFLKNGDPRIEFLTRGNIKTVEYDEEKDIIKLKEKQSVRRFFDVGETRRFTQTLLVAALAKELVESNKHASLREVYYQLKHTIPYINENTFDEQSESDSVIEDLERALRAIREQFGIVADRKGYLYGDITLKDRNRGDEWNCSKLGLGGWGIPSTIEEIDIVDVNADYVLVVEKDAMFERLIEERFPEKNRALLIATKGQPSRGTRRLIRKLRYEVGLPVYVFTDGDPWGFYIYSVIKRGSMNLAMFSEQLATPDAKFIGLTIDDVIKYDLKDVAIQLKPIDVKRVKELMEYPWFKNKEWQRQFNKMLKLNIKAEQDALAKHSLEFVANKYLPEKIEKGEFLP

[2] = biological target: the molecule itself; assay: SEC; purified MBP-tagged MTOPVIB on a Superdex 200 Increase 10/300 GL column calibrated with size standards; without ATP; monomer to dimer
[3] = biological target: the molecule itself; assay: SEC; Hi-Load Superdex 200 in D buffer without imidazole and glycerol, last step of the purification; monomer to dimer
MTOPVIB = biological target: T2, MTOPVIB (Arabidopsis thaliana, UniProt Q5Q0E6 1-473); assay: SPR; reaction buffer F, 0.05% Tween 20, 23 C; 1:1 global fit; EMSA: reaction buffer F (composition not in material) + 0.1 mg/ml BSA, 23 C, 30 min, 0.8% agarose-TBE at 4 C (6% PAGE for the competition); SPR: buffer F + 0.05% Tween 20, 23 C; conditions: protein: recombinant; tags: none (His6-MBP removed by PreScission); chain copies: 2; label: 5' biotin on Oligo 1; blunt
T2 sequence: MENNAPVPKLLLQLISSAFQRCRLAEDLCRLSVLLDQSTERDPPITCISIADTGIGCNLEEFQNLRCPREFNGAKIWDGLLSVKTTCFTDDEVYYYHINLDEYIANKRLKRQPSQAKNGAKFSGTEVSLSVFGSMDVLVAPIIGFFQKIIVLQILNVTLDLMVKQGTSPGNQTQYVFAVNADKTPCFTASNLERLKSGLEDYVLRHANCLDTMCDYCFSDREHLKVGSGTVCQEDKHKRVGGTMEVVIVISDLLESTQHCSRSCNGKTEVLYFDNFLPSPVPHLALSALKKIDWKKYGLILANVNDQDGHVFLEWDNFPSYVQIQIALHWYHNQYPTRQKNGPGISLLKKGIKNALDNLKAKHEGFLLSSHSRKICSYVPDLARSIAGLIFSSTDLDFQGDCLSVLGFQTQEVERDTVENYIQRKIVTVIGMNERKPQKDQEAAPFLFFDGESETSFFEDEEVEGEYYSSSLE

`Nc1ncnc2c1ncn2[C@@H]1O[C@H](COP(=O)(O)OP(=O)(O)OP(=O)(O)O)[C@@H](O)[C@H]1O` [ATP] was tested, and the “radioisotope-based ATPase assay; also ATP-agarose pulldown” value [1] was “unlike the Topo VI complex that hydrolyzed ATP to release”.

B1: A. thaliana His6-MBP-MTOPVIB (natural protein, UniProt Q5Q0E6 1-473, looked up)
chain: MENNAPVPKLLLQLISSAFQRCRLAEDLCRLSVLLDQSTERDPPITCISIADTGIGCNLEEFQNLRCPREFNGAKIWDGLLSVKTTCFTDDEVYYYHINLDEYIANKRLKRQPSQAKNGAKFSGTEVSLSVFGSMDVLVAPIIGFFQKIIVLQILNVTLDLMVKQGTSPGNQTQYVFAVNADKTPCFTASNLERLKSGLEDYVLRHANCLDTMCDYCFSDREHLKVGSGTVCQEDKHKRVGGTMEVVIVISDLLESTQHCSRSCNGKTEVLYFDNFLPSPVPHLALSALKKIDWKKYGLILANVNDQDGHVFLEWDNFPSYVQIQIALHWYHNQYPTRQKNGPGISLLKKGIKNALDNLKAKHEGFLLSSHSRKICSYVPDLARSIAGLIFSSTDLDFQGDCLSVLGFQTQEVERDTVENYIQRKIVTVIGMNERKPQKDQEAAPFLFFDGESETSFFEDEEVEGEYYSSSLE
notes: a PreScission protease site lies between the tag and the protein; Tag not cleaved in the size-exclusion analysis (MBP-tagged MTOPVIB) nor during the amylose step of the complex purification; also called MBP-tagged MTOPVIB; meiotic Topo VIB-like protein; source: High Five insect cells (baculovirus); purified alone (amylose, heparin, Mono Q, Superdex 200), and co-expressed with His6-SPO11-1 and …
B1 was tested, and the “stoichiometry N” value [2] was 2.

B2: Nanoarchaeum equitans Topo VIB (expressed alone from pET21b) (natural protein, UniProt Q74N98 1-567, looked up)
chain: MRRTFREATIAEFFEKNKQFLGFDSPRKALVMTVKELVDNALDATEEARILPTIKVTLKEGKYMTVRVEDNGPGIPFNEVPNVFGKFLYGTKFHVLKQNRGQQGIGAAAITLYSQLTTGKPIRVWDKPIDSNKAYYYEIMIDTKRNEPEVLVKKEVKLNIKHGLIVEADIKGEYTKGKQSVDQYLKLTAVANPHAEIIYRTPKGEYIVFKRGTNELPPLPKEIKPHPHGIELGQLKKMVSEHKGDLMDFLIKNFSSVGEDKAKEILARYIFYKEGKEDFEKFFKRFRGRKIDIKSLTSEDLELLLKAMRETKLKMPSAKALIPIGEKNLQIGITKEYDVEYLAVKTRKPKVYSGGIPFLVEVAIGYGDFEKAEILRFANRTPLLYKAGECAIVKAIKDINWKRYGFEVENNLPKNALILVHIASVKVPYTSESKEAIADIPEVREEIKRALQEVARKVQIYIKKKEETKELAEKYLRFYAYGKEIERYLPKLIDKDVDSVVTKTILKRLEEELLERIKNNKTIVTHIENKDYETAKKLIKKMVMPLIKKKIIDESFIDRLIQLYNVS
notes: Topoisomerase VI subunit B, Nanoarchaeum equitans, codon-optimized cDNA in the Nde1 and Xho1 sites of pET21b; The tag is inferred from the vector and the Ni-NTA step; also called N. equitans Topo VIB; source: E. coli Rosetta (DE3) pLysS, purified (Ni-NTA, HiPrep SP XL, Hi-Load Superdex 200)
In the case of B2, the “stoichiometry N” value [3] is reported as 2.

B3: 80 bp dsDNA, biotinylated (dsDNA)
DNA 1: TTATGTTCATTTTTTATATCCTTTACTTTATTTTCTCTGTTTATTCATTTACTTATTTTGTATTATCCTTATCTTATTTA
DNA 2: TAAATAAGATAAGGATAATACAAAATAAGTAAATGAATAAACAGAGAAAATAAAGTAAAGGATATAAAAAATGAACATAA
B3 gave a Kd (MTOPVIB) of about 150 nM.
